Test results reported in publication PMC10942606.

What was measured:
Experiment in all cases: MST
Pcf1-ΔWHD;Pcf2;Pcf3 = target: T1, Pcf1-ΔWHD;Pcf2;Pcf3 (Schizosaccharomyces …, UniProt Q1MTN9;O13985;Q9Y825 1-470;1-512;1-408, del471-544||)
T1 sequence 1: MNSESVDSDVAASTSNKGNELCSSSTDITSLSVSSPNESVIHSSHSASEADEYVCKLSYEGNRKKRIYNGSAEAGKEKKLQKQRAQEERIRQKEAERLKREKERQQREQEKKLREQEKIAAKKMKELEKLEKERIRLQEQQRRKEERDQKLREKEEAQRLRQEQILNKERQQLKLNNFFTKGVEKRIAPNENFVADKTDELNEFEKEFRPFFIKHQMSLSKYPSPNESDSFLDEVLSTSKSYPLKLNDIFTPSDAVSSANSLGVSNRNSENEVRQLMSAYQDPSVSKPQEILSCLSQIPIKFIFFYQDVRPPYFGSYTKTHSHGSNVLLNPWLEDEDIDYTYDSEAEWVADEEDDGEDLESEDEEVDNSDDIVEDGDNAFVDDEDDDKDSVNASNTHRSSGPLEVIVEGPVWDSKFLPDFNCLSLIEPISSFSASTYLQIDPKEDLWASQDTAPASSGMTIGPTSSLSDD
T1 sequence 2: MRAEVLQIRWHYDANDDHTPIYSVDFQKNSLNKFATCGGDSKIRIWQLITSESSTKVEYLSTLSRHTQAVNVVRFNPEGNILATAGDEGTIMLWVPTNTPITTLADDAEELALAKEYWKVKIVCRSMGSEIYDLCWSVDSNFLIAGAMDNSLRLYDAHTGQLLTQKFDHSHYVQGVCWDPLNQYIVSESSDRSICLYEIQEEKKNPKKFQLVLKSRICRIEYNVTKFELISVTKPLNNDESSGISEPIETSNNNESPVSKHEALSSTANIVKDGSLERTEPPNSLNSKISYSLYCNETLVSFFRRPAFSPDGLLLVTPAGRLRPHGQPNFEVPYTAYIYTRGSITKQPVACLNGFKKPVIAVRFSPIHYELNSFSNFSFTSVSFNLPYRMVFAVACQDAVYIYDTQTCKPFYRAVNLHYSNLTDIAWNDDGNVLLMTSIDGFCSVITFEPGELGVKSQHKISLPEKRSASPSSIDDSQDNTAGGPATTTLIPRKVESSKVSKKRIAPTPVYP
T1 sequence 3: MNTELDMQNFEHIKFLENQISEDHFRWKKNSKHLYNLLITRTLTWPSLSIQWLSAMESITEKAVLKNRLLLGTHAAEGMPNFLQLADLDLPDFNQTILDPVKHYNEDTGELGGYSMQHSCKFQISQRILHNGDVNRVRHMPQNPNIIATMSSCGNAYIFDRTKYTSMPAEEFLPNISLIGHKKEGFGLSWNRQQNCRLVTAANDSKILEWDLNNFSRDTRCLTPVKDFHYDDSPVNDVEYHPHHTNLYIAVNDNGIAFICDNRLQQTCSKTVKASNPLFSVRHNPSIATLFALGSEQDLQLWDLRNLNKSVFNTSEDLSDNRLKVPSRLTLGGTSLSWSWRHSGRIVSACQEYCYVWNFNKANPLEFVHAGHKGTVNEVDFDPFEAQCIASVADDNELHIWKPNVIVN

Pcf1-PIP*;Pcf2;Pcf3 = target: T2, Pcf1-PIP*;Pcf2;Pcf3 (Schizosaccharomyces …, UniProt Q1MTN9;O13985;Q9Y825 1-544;1-512;1-408, Q172A;L175A;F178A;F179A||)
T2 sequence 1: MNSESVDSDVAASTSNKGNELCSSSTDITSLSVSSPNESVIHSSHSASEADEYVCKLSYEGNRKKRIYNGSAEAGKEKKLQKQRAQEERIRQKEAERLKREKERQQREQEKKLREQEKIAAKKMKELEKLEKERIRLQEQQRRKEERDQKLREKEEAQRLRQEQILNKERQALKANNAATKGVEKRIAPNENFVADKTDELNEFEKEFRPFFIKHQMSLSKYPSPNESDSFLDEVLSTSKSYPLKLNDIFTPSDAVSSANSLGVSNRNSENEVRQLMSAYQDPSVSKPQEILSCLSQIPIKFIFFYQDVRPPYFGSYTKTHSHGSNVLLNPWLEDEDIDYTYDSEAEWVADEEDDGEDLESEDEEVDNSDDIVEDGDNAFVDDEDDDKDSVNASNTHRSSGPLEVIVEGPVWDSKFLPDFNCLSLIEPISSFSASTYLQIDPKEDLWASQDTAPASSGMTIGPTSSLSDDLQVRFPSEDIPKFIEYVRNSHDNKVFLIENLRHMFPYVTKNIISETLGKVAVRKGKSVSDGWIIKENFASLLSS
T2 sequence 2: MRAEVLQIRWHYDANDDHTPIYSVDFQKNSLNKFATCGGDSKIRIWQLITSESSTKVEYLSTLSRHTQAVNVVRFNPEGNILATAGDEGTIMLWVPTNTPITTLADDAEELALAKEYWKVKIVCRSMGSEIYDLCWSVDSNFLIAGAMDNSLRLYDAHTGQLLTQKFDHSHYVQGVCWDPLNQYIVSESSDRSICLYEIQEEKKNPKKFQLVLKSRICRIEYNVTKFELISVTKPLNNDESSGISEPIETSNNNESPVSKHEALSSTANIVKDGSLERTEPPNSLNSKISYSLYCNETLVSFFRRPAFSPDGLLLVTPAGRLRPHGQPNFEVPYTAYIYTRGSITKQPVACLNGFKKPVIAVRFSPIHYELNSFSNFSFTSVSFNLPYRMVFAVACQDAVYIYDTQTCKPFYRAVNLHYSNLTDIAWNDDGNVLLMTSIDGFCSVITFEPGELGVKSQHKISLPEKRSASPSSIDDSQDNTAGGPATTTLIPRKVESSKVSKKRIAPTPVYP
T2 sequence 3: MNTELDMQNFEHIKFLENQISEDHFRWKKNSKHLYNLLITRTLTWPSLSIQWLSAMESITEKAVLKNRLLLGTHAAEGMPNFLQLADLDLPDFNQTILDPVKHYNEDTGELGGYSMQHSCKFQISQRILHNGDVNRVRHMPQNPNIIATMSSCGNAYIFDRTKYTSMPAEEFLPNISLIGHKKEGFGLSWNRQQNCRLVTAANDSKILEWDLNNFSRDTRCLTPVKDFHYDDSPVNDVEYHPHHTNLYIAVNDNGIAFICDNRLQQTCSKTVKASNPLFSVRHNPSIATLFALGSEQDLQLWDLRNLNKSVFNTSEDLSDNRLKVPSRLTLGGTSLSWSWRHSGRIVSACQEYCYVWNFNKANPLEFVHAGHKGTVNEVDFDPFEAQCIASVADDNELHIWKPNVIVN

Pcf1_KER-PIP = target: T3, Pcf1_KER-PIP (Schizosaccharomyces pombe, UniProt Q1MTN9 56-185)
T3 sequence: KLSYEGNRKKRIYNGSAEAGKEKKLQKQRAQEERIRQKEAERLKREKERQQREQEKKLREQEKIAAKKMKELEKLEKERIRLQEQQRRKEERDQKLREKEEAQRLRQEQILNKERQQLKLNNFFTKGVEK

B1: 40 bp dsDNA, Alexa488 (dsDNA)
DNA 1: ATCAATATCCACCTGCAGATACTACCAAAAGTGTATTTGG
DNA 2: CCAAATACACTTTTGGTAGTATCTGCAGGTGGATATTGAT
Pcf1-ΔWHD;Pcf2;Pcf3
  apparent K (half saturation): 700 ± 100 nM
Pcf1-PIP*;Pcf2;Pcf3
  apparent K (half saturation): 700 ± 100 nM
Pcf1_KER-PIP
  apparent K (half saturation): 1900 ± 300 nM
